According to patent US20070178531A1 (BIOCHECK, published 2007):
Positions count from the first letter of the chain named.

T1: Mouse Id2: Histidine (mouse, UniProt P41136 1-134, limits assumed)
T1 construct: Fusion protein made in E. coli from vector pGW07; also called m-Id2: His; not shown: His tag
T1 sequence (looked up): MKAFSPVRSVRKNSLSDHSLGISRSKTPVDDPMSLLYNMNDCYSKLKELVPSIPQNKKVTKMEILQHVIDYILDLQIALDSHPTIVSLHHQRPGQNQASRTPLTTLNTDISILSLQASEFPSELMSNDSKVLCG

T2: Mouse Id3: Histidine (mouse, UniProt P41133 1-119)
T2 construct: Fusion protein made in E. coli from vector pGW07; also called m-Id3: His; Mouse Id3 (coated wells); not shown: His tag
T2 sequence: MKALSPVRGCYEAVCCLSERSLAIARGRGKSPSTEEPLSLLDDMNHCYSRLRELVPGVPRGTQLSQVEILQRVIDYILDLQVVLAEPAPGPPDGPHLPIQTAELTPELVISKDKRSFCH

T3: Human Id3: Histidine (human, UniProt Q02535 1-119 at identity 1.00))
T3 construct: Fusion protein made in E. coli from vector pGW07; also called h-Id3: His; Human Id3 (coated wells); not shown: His tag
T3 chain: T2 sequence with S31G, S33A, T34A, T105A, K112N

T4: Mouse Id1: Histidine (mouse, UniProt P20067-2 1-148, limits assumed)
T4 construct: Fusion protein made in E. coli from vector pGW07; also called m-Id1-His; not shown: His tag
T4 sequence (looked up): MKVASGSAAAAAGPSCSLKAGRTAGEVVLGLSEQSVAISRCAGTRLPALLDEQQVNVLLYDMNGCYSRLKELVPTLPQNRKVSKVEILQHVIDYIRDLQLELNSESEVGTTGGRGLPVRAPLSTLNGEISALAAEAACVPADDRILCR

T5: Human Id1: Histidine (human, UniProt P41134 1-155, limits assumed)
T5 construct: Fusion protein made in E. coli from vector pGW07; also called h-Id1: his; not shown: His tag
T5 sequence (looked up): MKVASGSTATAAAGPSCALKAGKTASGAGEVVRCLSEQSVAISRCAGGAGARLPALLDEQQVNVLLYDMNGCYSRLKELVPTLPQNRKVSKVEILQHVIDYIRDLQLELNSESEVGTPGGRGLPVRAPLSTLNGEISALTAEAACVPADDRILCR

T6: Human Id2: Histidine (human, UniProt Q02363 1-134, limits assumed)
T6 construct: Fusion protein made in E. coli from vector pGW07; also called h-Id2: His; not shown: His tag
T6 sequence (looked up): T1 sequence (looked up) with T60S, V131A

B1: rabbit monoclonal anti-human Id3, clone #BCH-4/#3-3 (antibody, V domains shown)
VH: QSVEESGGRLVTPGTPLTLTCTVSGIDLSSYAMSWVRQAPGKGLEWIGVIFPSNNVYYASWAKGRFTISKTSTTVDLKITSPTTEDTATYFCASMGAFDSWGPGTLVTVSS
VL: QVLTQTPSPVSAAVGGTVTINCQASQSIYNDNDLAWFQQKPGQPPKLLIYDASTLTSGVPSRFKGSGSGTQFTLTISDLDCDDAATYYCAARYSGNIYGFGGGTEVVVK
notes: Rabbit IgG from a rabbit hybridoma; also called h Id3 MoAb 3-3
B2: rabbit monoclonal anti-mouse/human Id3, clone #BCH-4/#16-1 (antibody, V domains shown)
VH: QSVEESGGRLVTPGTPLTLTCTASGFSLSSYYIHWVRQAPGKALEWIGYISDGGTTYYASWAKGRFTISKTSSTTVDLKMTSLTTEDTATYFCARQGFNIWGPGTLVTVSL
VL: AVLTQTPSPVSAAVGGTVTISCQSSQSVYNNNWLSWFQQKSGQPPKLLIYETSKLESGVPSRFKGSGSGTQFTLTIIDVQCDDAATYYCLGGYWTTSDNNIFGGGTEVVVK
notes: Rabbit IgG from a rabbit hybridoma; also called m/h Id3 MoAb 16-1
B3: rabbit monoclonal anti-mouse/human Id3, clone #BCH-4/#42-1 (antibody, V domains shown)
VH: B2 VH
VL: B2 VL with T95S
notes: Rabbit IgG from a rabbit hybridoma; also called m/h Id3 MoAb 42-1
B4: rabbit monoclonal anti-mouse/human Id3, clone #BCH-4/#6-1 (antibody, V domains shown)
VH: B2 VH with S30N, Y31V, A43G, G54D, T56A, Y57R, S60T, D77N
VL: B2 VL with T19S, Y29W, S41P, I77S, I101V
notes: Rabbit IgG from a rabbit hybridoma; also called m/h Id3 MoAb 6-1
B5: rabbit monoclonal anti-mouse/human Id3, clone #BCH-4/#17-3 (antibody, V domains shown)
VH: B2 VH with S30N, Y31V, A43G, G54D, T56A, Y57R, S60T, D77N
VL: B2 VL with T19S, Y29W, S41P, I77S, I101V
notes: Rabbit IgG from a rabbit hybridoma; also called m/h Id3 MoAb 17-3; BCH-3/#17-3

Molecular target: T7, glutathione S-transferase (GST) (UniProt P08515 1-218 = GST)
T7 construct: also called carrier protein GST
T7 sequence (P08515 whole entry): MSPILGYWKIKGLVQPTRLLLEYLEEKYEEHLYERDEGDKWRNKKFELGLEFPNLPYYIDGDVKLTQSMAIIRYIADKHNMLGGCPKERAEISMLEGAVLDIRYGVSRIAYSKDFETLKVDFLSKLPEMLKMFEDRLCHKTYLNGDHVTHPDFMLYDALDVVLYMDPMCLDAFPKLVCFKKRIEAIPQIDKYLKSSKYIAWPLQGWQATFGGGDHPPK
Test: ELISA, Ab 0.050 µg/ml

Binder | A450 [A450]
B1 | 0.048
B2 | 0.046
B3 | 0.049
B4 | 0.047
B5 | 0.046

Molecular target: T1, Mouse Id2: Histidine
Test: ELISA, Ab 0.025 µg/ml
Procedure: (§1) The rabbit monoclonal anti-human Id3 (clone #3-3) and the rabbit monoclonal anti-mouse/human Id3 (clones #6-1, 16-1, 17-3, and 42-1) produced in Example 6 were tested reactivity against the following antigens: mouse Id1:His, human Id1:His, mouse Id2:His, human Id2:His, mouse Id3:His, human Id3:His, mouse Id4:His, human Id4:His and GST.
(§2) 1. Microtiter wells (prepared in accordance with Example 6) were coated (0.1 μg/well) with mouse Id1:His, human Id1:His, human Id2:His, human Id3:His, and 1.0 μg/well with GST. [0155] 2. Antibody Diluent: 0.25% (w/v) BSA in 0.015M KPO₄ Buffer, 0.85% (w/v) NaCl, 0.1% (w/v) NaN₃, pH=7.40 [0156] 3. Rabbit monoclonal anti-human Id3 (clone #3-3) prepared in Example 7 was diluted to […] with the antibody diluent. […] 4. Rabbit monoclonal anti-mouse/human Id3 (clones #6-1, 16-1, 17-3, 42-1) prepared in Example 7 was diluted to 0.005, 0.010, 0.025, 0.05, 0.10, 0.25, and 0.50 μg/ml with the antibody diluent. […] 5. Conjugate Diluent: 50% (v/v) which consists of an aqueous solution containing Fetal Bovine Serum in 0.05 M Tris, 1% (v/v) Proclin-300, pH 7.6. [0159] 6. Conjugate: Goat anti-rabbit IgG (H+L)-HRP conjugate. [0160] 7. TMB reagent. […] 8. Stop solution (1 N HCI). Method
(§3) 1. Dispense 100 μL of antibody diluent, diluted rabbit monoclonal human Id3, and mouse/human Id3 hybridoma supernatants into appropriate wells. […] 2. Incubate at room temperature with mechanical shaking at 750 rpm for 90 minutes. [0165] 3. Remove the incubation mixture by flicking plate content into an appropriate waste container followed by rinsing the wells 5 times with distilled water. [0166] 4. Strike the wells sharply onto absorbent paper or paper towels to remove all residual water droplets. [0167] 5. Dispense 100 μL of 1:50,000 Goat Anti-Rabbit IgG-HRP Conjugate Reagent into each well. Gently mix for 5 seconds. [0168] 6. Incubate at room temperature with mechanical shaking at 750 rpm for 90 minutes. [0169] 7. Repeat procedures 3 and 4. [0170] 8. Dispense 100 μL of TMB Reagent into each well. Gently mix for 5 seconds. [0171] 9. Incubate at room temperature with mechanical shaking at 750 rpm for 20 minutes. […] 10.

Binder | A450 [A450]
B1 | 0.048
B2 | 0.051
B3 | 0.052
B4 | 0.048
B5 | 0.05

Molecular target: T2, Mouse Id3: Histidine
Test: ELISA, Ab 0.025 µg/ml
Procedure: as §1, §2, §3

Binder | A450 [A450]
B2 | 0.953
B3 | 1.58
B4 | 1.13
B5 | 1.4

Molecular target: T3, Human Id3: Histidine
Test: ELISA, Ab 0.005 µg/ml
Procedure: as §1, §2, §3

Binder | A450 [A450]
B2 | 0.228
B3 | 0.382
B4 | 0.275
B5 | 0.33

Molecular target: T4, Mouse Id1: Histidine
Test: ELISA, Ab 0.005 µg/ml
Procedure: as §1, §2, §3

Binder | A450 [A450]
B1 | 0.044
B2 | 0.046
B3 | 0.045
B4 | 0.047
B5 | 0.048

Molecular target: T1, Mouse Id2: Histidine
Test: ELISA, Ab 0.005 µg/ml
Procedure: as §1, §2, §3

Binder | A450 [A450]
B1 | 0.048
B2 | 0.045
B3 | 0.05
B4 | 0.046
B5 | 0.052

Molecular target: T2, Mouse Id3: Histidine
Test: ELISA, Ab 0.005 µg/ml
Procedure: as §1, §2, §3

Binder | A450 [A450]
B2 | 0.24
B3 | 0.437
B4 | 0.312
B5 | 0.39

Molecular target: T5, Human Id1: Histidine
Test: ELISA, Ab 0.005 µg/ml
Procedure: as §1, §2, §3

Binder | A450 [A450]
B1 | 0.047
B2 | 0.042
B3 | 0.046
B4 | 0.044
B5 | 0.044

Molecular target: T6, Human Id2: Histidine
Test: ELISA, Ab 0.005 µg/ml
Procedure: as §1, §2, §3

Binder | A450 [A450]
B1 | 0.044
B2 | 0.046
B3 | 0.043
B4 | 0.045
B5 | 0.045
